Laboratory results taken from PMC9670274 (ACS Omega, 2022).

How the values were obtained:
[1] = biological target: lactate dehydrogenase from Lactobacillus helsingborgensis (Lactobacillus helsingborgensis); test: SEC-MALS
SEC-MALS = biological target: the molecule itself; test: SEC-MALS

lactate dehydrogenase from Lactobacillus helsingborgensis (enzyme)
stoichiometry N [1]: 8

B1: lactate dehydrogenase from Lactobacillus johnsonii (enzyme)
chain: MTTYYKGFPQSTREEKLHMVNLDELEHEAKYVMPEAAYYYVASGAENEWTWRNNTQAFNHFQIVPRALTGMQNPELNTEFLGMKLKTPVMICPIACHGIANAEAEIDTAKGAKAAGALFAMSTYANKSVQEVQSAVGDSPRFMQLYLSKNWDFNKMVIEESVKAGFTGFFLTVDALVSGYREANLRTNFTYPVPLAFFNEWNGGKGEGQSVAQMYASSAQNIGPDDIRKIKEIADVPVIVKGVECAEDAMLAIGTGADGIVVSNHGGREVDGAPATIDVLPEIAKAVRSCDHRVPIILDGGVRRGSHVFKALALGADLVGIGRPFLYGLALGGAQGVQSVIEQLNKELLIDMQLTGCKTIEDIKHAKIDHINYSADWGISSTSRSVMKPYPVTKENQLTGEAADAVSGASRH
stoichiometry N (SEC-MALS): 8
